Data on two molecules can be found in patent US20200031911A1 (MEDANNEX, published 2020).

One may read the Kd as the equilibrium constant for the complex coming apart. Low values mean higher affinity, high ones lower affinity.

The target in test [1] is T1, human annexin A1 (Anx-A1) (human, UniProt P04083 2-346).
T1 construct: also called full-length human Anx-A1 (ANXA1-002 / ANXA1-003 transcripts)
T1 sequence: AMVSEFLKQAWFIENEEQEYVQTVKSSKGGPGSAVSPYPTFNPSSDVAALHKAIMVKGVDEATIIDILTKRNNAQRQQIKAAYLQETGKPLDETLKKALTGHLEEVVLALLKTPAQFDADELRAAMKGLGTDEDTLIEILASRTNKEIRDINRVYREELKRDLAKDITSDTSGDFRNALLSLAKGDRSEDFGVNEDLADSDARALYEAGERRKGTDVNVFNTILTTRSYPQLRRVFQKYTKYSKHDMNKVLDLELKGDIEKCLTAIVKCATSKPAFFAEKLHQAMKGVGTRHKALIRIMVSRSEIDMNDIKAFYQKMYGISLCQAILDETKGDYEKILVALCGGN
In words: Biacore SPR, assay 1 of 3; antibody captured via goat anti-mouse IgG, Anx-A1 at 5-80 nM as analyte, 1 mM CaCl2. The method, then: (§1) The Mdx001 antibody was immobilised on a chip via a goat anti-mouse IgG. Ligand (Anx-A1) was passed over the immobilised antibody in running buffer. Anx-A1 was used at a concentration of 5, 10, 20, 40 or 80 nM. In each experiment, a total of 150 μl Anx-A1-containing running buffer was passed over the antibody, at a flow rate of 30 μl/min.
(§2) Regeneration was performed using a regeneration buffer, 10 mM glycine-HCl, pH 2. To regenerate the chip, 70 μl regeneration buffer was passed over the chip at a rate of 10 μl/min.
(§3) Experiments were performed in triplicate.
(In general: In SPR one partner is held on a chip, and binding of the other changes the refractive index at the surface.)

Test [2] concerns the target T1, human annexin A1 (Anx-A1). Put plainly: Biacore SPR, assay 3 of 3; antibody captured via goat anti-mouse IgG, Anx-A1 at 5-80 nM as analyte, 1 mM CaCl2. The procedure:
as §1, §2, §3

Test [3] has as its target T1, human annexin A1 (Anx-A1). Put plainly: Biacore SPR, average of three assays; antibody captured, Anx-A1 as analyte. The method, then: as §1, §2, §3
In test [4] the target is T1, human annexin A1 (Anx-A1). In words: Biacore SPR, assay 2 of 3; antibody captured via goat anti-mouse IgG, Anx-A1 at 5-80 nM as analyte, 1 mM CaCl2. The procedure: as §1, §2, §3
In test [5] the target is T1, human annexin A1 (Anx-A1). In words: Biacore SPR, average of three assays, method of Example 4; average of the three experiments. The method, then: as §1
(§4) In light of the ELISA results, the LC1(mod 1)HC4 and LC2(mod 1)HC2 antibodies were discarded. […] Binding of LC1(mod 2)HC4 and LC2(mod 2)HC2 to Anx-A1 was quantified by Biacore, using the same method as described in Example 4. As in Example 4, the Biacore experiments were performed in triplicate. […] LC1(mod 2)HC4 was given the name MDX-L1M2H4. […] LC2(mod 2)HC2 was given the name MDX-L2M2H2.

For test [6], the target named is T1, human annexin A1 (Anx-A1). Put plainly: Biacore SPR, assay 3 of 3, method of Example 4; third of three experiments. The method, then: as §1, §4
The target in test [7] is T1, human annexin A1 (Anx-A1). In words: Biacore SPR, assay 1 of 3, method of Example 4; first of three experiments. The procedure: as §1, §4
In test [8] the target is T1, human annexin A1 (Anx-A1). Put plainly: Biacore SPR, assay 2 of 3, method of Example 4; second of three experiments. The procedure:
as §1, §4

B1: Mdx001 (antibody, mouse IgG2b, kappa, V domains shown)
VH: QVQLQQSGPELVRPGTSVKMSCKASGYTFTNYWIGWAKQRPGHGLEWIGDIYPGGDYTNYNEKFKGKATLTADKSSSTAYMQFSSLTSEDSAIYYCARWGLGYYFDYWGQGITLTVSS
VL: DAVMTQTPLSLPVSLGDQVSISCRSSQSLENSNGKTYLNWYLQKPGQSPQLLIYGVSNRFSGVLDRFSGSGSGTDFTLKISRVEAEDLGVYFCLQVTHVPYTFGGGTKLEIKR
notes: also called murine anti-Anx-A1 antibody
With B1, the Kd in test [1] is 9.43 nM; in test [2], 6.46 nM; in test [3], 8.49 nM; in test [4], 9.58 nM.

B2: MDX-L2M2H2 (antibody, human IgG1, kappa, V domains shown)
VH: QVQLVQSGPEVKKPGESLKISCKGSGYTFTNYWIGWVRQAPGKGLEWMGDIYPGGDYTNYNEKFKGQVTISADKSISTAYLQWSSLKASDTAIYYCARWGLGYYFDYWGRGTLVTVSS
VL: DIVMTQTPLSLSVTPGQPASISCRSSQSLENSNAKTYLNWYLQKPGQSPQLLIYGVSNRFSGVPDRFSGSGSGTDFTLKISRVEAEDVGVYYCLQVTHVPYTFGQGTKVEIKR
notes: also called LC2(mod 2)HC2; variant 1 of MDX-L2H2
For B2, the Kd in test [5] was 4.66 nM; in test [6], 5.17 nM; in test [7], 4.44 nM; in test [8] it was 4.37 nM.
